Results on seven molecules are retold here after US20080138349A1 (MacroGenics, published 2008).

Positions count from the first letter of the chain named. Names and notes keep the numbering of the source.

Assay [1] addresses T1, FcγRIIIA (UniProt P08637 17-208, limits assumed).
T1 construct: also called CD16A
Description: ELISA. In general terms: ELISA stands for enzyme-linked immunosorbent assay.

Assay [2] has as its target T1, FcγRIIIA. The experiment in a line: ELISA. The source holds these as a separate data set.
Assay [3] concerns the target T2, FcγRIIB-Fc fusion protein, soluble dimeric: extracellular domain of FcγRIIB fused to the hinge-CH2-CH3 domain … (human, UniProt P31994 43-217, limits assumed).
T2 construct: extracellular domain; also called FcRIIB-Fc; FcR2B; not shown: human IgG2 hinge-CH2-CH3
T2 sequence (looked up): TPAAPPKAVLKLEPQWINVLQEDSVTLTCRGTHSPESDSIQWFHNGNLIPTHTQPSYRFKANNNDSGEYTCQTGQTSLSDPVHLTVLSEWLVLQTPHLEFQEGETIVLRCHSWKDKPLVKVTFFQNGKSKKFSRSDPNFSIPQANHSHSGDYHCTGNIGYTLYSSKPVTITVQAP
Description: BIAcore, ch4-4-20. (In general: Surface plasmon resonance follows binding to a sensor surface in real time, without labels.)

The target in a further assay is T3, 2bfcagl (FcγRIIB-Fc) (UniProt P31994 43-217, limits assumed).
T3 construct: label not explained; may be m4 or an aglycosylated form of it; not shown: Fc part; label fcagl is not explained
T3 sequence (looked up): T2 sequence (looked up)
The experiment in a line: BIAcore, 2B6 captured by soluble CD32B.

Another assay addresses T4, FcγRIIIA 158F, soluble (UniProt P08637 17-208, limits assumed).
T4 construct: also called 3aF158
The experiment in a line: BIAcore, 2B6 captured by soluble CD32B.

The target in another assay is T5, FcγRIIIA 158V, soluble (UniProt P08637 17-208, limits assumed).
T5 construct: also called 3aV158
Description: BIAcore, 2B6 captured by soluble CD32B.

The target in assay [4] is T6, 2aH131Fcagl (FcγRIIA 131H-Fc) (UniProt P12318 34-217, limits assumed).
T6 construct: also called FcγRIIA H131; not shown: Fc part; label Fcagl is not explained
T6 sequence (looked up): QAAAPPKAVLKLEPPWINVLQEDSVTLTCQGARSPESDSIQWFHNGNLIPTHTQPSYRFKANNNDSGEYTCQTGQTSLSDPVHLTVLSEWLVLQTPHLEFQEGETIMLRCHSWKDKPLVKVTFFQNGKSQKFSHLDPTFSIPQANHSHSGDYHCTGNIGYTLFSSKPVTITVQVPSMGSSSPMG
The experiment in a line: BIAcore, 2B6 captured by soluble CD32B.

Assay [5] has as its target T7, 2aR131Fcagl (FcγRIIA 131R-Fc) (UniProt P12318 34-217, limits assumed).
T7 construct: not shown: Fc part; label Fcagl is not explained
T7 sequence (looked up): T6 sequence (looked up) with H134R
The experiment in a line: BIAcore, 2B6 captured by soluble CD32B.

The next assay deals with T8, C1q.
T8 construct: also called first component of the complement cascade
Description: BIAcore, 2B6 captured by soluble CD32B.

The target in assay [6] is T1, FcγRIIIA. The experiment in a line: ELISA. The source holds these as a separate data set.
In assay [7] the target is T9, soluble monomeric FcγRIIIA, the extracellular region of FcγRIIIA joined to the linker-AVITAG sequence (UniProt P08637 17-208, limits assumed).
T9 construct: extracellular domain; also called FcRIIIA; FcR3A
The experiment in a line: BIAcore.

Assay [8] addresses T2, FcγRIIB-Fc fusion protein, soluble …. The experiment in a line: BIAcore.
Assay [9] deals with T9, soluble monomeric FcγRIIIA, the …. Description: BIAcore, antibody captured on BSA-FITC.
In assay [10] the target is T2, FcγRIIB-Fc fusion protein, soluble …. The experiment in a line: ELISA of the ch4-4-20 Fc variant for FcγRIIB-Fc fusion protein, value listed beside the sensorgram.

T1 sequence (P08637 17-208 limits assumed): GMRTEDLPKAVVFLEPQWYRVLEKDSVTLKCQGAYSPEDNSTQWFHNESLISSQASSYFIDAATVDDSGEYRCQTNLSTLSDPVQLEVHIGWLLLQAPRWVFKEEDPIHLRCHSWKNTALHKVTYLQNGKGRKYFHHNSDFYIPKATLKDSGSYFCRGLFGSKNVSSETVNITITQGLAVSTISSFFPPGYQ
T4 sequence (P08637 17-208 limits assumed): as above
T9 sequence (P08637 17-208 limits assumed): as above
T5 sequence (P08637 17-208 F176V limits assumed): as the sequence (P08637 17-208 limits assumed) above, with F160V counted along it
T8 sequence (P02745 23-245, chain 1 of 3): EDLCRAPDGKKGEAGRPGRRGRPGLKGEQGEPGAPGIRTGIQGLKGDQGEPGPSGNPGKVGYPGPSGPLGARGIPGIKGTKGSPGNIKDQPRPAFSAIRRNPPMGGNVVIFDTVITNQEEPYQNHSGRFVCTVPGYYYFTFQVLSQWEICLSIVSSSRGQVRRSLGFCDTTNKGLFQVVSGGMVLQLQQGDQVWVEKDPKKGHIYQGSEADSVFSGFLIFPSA
T8 sequence (P02746 28-253, chain 2 of 3, further chain): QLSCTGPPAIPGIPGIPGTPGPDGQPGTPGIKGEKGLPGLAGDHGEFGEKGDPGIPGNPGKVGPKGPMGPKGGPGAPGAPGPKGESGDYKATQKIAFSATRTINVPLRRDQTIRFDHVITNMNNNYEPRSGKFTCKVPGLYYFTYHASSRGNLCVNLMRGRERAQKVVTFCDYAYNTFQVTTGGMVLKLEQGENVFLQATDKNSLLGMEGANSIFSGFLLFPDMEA
T8 sequence (P02747 29-245, chain 3 of 3, further chain): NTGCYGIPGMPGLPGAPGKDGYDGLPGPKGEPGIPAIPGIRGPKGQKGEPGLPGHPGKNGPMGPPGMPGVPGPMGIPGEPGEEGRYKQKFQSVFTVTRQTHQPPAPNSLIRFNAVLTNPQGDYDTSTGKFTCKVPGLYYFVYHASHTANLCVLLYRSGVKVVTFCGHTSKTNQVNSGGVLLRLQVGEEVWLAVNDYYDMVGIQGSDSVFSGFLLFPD

B1: ch4-4-20 K288N, A330S, P396L (antibody)
chain: EPKSCDKTHTCPPCPAPELLGGPSVFLFPPKPKDTLMISRTPEVTCVVVDVSHEDPEVKFNWYVDGVEVHNANTKPREEQYNSTYRVVSVLTVLHQDWLNGKEYKCKVSNKALPSPIEKTISKAKGQPREPQVYTLPPSREEMTKNQVSLTCLVKGFYPSDIAVEWESNGQPENNYKTTPLVLDSDGSFFLYSKLTVDKSRWQQGNVFSCSVMHEALHNHYTQKSLSLSPGK
Take B1: the “ELISA IIIA binding vs wt” value with FcγRIIIA [1] came to 5 X. Moreover, the “ELISA, OD” value with FcγRIIIA [2] is 1 OD.

B2: ch4-4-20 S298N, K360R, N361D (antibody)
chain: B1 chain with N73K, S83N, S115A, K145R, N146D, L181P
Take B2: the “Koff WT/Mut” value in assay [3] was found to be 0.67.

B3: ch-mAb 2B6 MgFc31/60 (P247L, D270E, N421K) (antibody)
chain: ASTKGPSVFPLAPSSKSTSGGTAALGCLVKDYFPEPVTVSWNSGALTSGVHTFPAVLQSSGLYSLSSVVTVPSSSLGTQTYICNVNHKPSNTKVDKKVEPKSCDKTHTCPPCPAPELLGGPSVFLFPPKLKDTLMISRTPEVTCVVVDVSHEEPEVKFNWYVDGVEVHNAKTKPREEQYNSTYRVVSVLTVLHQDWLNGKEYKCKVSNKALPAPIEKTISKAKGQPREPQVYTLPPSRDELTKNQVSLTCLVKGFYPSDIAVEWESNGQPENNYKTTPPVLDSDGSFFLYSKLTVDKSRWQQGKVFSCSVMHEALHNHYTQKSLSLSPGK
In general, koff refers to the rate constant with which the complex falls apart. Consider B3, for which the koff was 0.094 s⁻¹ with 2bfcagl (FcγRIIB-Fc); 0.238 s⁻¹ with FcγRIIIA 158F, soluble; 0.084 s⁻¹ in the assay with FcγRIIIA 158V, soluble; 0.034 s⁻¹ in assay [4]; 0.127 s⁻¹ in assay [5].

B4: ch-mAb 2B6 MgFc59/60 (K370E, P396L with D270E) (antibody)
chain: B3 chain with L130P, K253E, P279L, K304N
B4: the koff in the assay with 2bfcagl (FcγRIIB-Fc) was determined as 0.078 s⁻¹; with FcγRIIIA 158F, soluble it was 0.296 s⁻¹; with FcγRIIIA 158V, soluble it was 0.105 s⁻¹; in [4], 0.024 s⁻¹; in [5], 0.095 s⁻¹; with C1q, 0.107 s⁻¹.

B5: ch-mAb 2B6 MgFc51/60 (Q419H, P396L with D270E) (antibody)
chain: B3 chain with L130P, P279L, Q302H, K304N
In the case of B5, the koff in the assay with 2bfcagl (FcγRIIB-Fc) came out at 0.077 s⁻¹; with FcγRIIIA 158F, soluble, 0.293 s⁻¹; in the assay with FcγRIIIA 158V, soluble it was 0.112 s⁻¹; in [4], 0.028 s⁻¹; in assay [5] it was 0.089 s⁻¹; with C1q, 0.079 s⁻¹.

B6: ch4-4-20 K288M, K334E (antibody)
chain 1: not shown
chain 2: DVVMTQTPLSLPVSLGDQASISCRSSQSLVHSNGNTYLRWYLQKPGQSPKVLIYKVSNRFSGVPDRFSGSGSGTDFTLKISRVEAEDLGVYFCSQSTHVPWTFGGGTKLEIKRTVAAPSVFIFPPSDEQLKSGTASVVCLLNNFYPREAKVQWKVDNALQSGNSQESVTEQDSKDSTYSLSSTLTLSKADYEKHKVYACEVTHQGLSSPVTKSFNRGEC
In general, Kd refers to the free concentration of one partner at which half of the binding sites on the other are occupied at equilibrium, for simple one-to-one binding. As usually defined, the kon is the second-order rate constant of association. A high value points to faster complex formation. For the molecule B6, the “ELISA binding increase vs wt” value with FcγRIIIA [6] came out at 3 x. Also, the results for the Kd in assay [7], in assay [8] and in [9] were 75.4 nM, 95.6 nM and 75.4 nM, respectively. Also, the koff in [7] came to 0.1 s⁻¹; in assay [8], 0.089 s⁻¹; in assay [9], 0.1 s⁻¹. This molecule also returned a kon in [9] of 1.37e+06 M⁻¹ s⁻¹. Also, the “ELISA IIIA binding vs wt” value with FcγRIIIA [1] was found to be 3 X. Moreover, the “ELISA, OD” value in assay [10] worked out at 0.13 OD; with FcγRIIIA [2], 1.1 OD.

B7: ch4-4-20 Mut23 (antibody)
chain 1: not shown
chain 2: B6 chain 2
In assay [9], B7 registered a Kd of 70.2 nM, a koff of 0.105 s⁻¹ and a kon of 1.43e+06 M⁻¹ s⁻¹. The “ELISA, OD” value in assay [10] is 0.1 OD. Moreover, the “ELISA, OD” value in the assay with FcγRIIIA [2] is 1.25 OD.
